Reference: patent US20260207747A1 (ARTIVA BIOTHERAPEUTICS, published 2026)

T1: human B cell maturation antigen (BCMA), full-length, on cells (human, UniProt Q02223 1-184)
T1 construct: also called CD269; TNFRSF17
T1 sequence: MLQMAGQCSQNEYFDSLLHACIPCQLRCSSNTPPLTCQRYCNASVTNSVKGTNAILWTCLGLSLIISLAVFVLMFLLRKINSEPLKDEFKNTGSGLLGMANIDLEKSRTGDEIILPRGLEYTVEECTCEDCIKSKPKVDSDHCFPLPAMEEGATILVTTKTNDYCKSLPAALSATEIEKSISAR


Key:
[1] = target: T1, human B cell maturation antigen (BCMA), …; assay: Retrogenix Cell Microarray, proteins expressed in human HEK293 cells
[2] = target: T1, human B cell maturation antigen (BCMA), …; assay: FACS titration; cells not named in the heading (value equals the NCI-H929 EC50 of 14D14A in Table 2); heading of Table 6; cells not given
[3] = target: T1, human B cell maturation antigen (BCMA), …; assay: FACS titration (Scatchard analysis) on HEK-293T cells stably expressing full-length human BCMA; anti-mouse IgG-A647 detection
Method: (§1) Antibodies were generated by immunizing AlivaMab mice with human BCMA and sequenced. The antibody sequences are shown in Table 3, Table 4, Table 5, Table 6, Table 7, and Table 8. […] Antibodies were titrated from 10 nM, with seven 1:5 dilutions. A positive control, mouse anti-human BCMA antibody (Biolegend, cat #357514) was tested in each experiment. Binding readout was measured via secondary detection, using an anti-mouse IgG-A647 nm (dilution 1:10000).

[4] = target: T1, human B cell maturation antigen (BCMA), …; assay: FACS titration (Scatchard analysis) on BCMA-expressing human NCI-H929 cells; anti-mouse IgG-A647 detection
Method: as §1

Binder | binding result [1] | EC50 [2] | EC50 [3] | EC50 [4]
Antibody #4 (Clone ID 14D14A_C) (antibody, V domains shown, Same VL as 14D14A; The VH differs in Kabat CDR-H1 (SYYWC)) VH: QVQLQESGPGLVKPSETLSLTCTVSGGSISSYYWCWIRQSAGKGLEWIGRMYTSGSTNYNPSLKSRVTMSVDTSKNQFSLKLTSVTAADTAVYYCARERGYYYGGGGWIDPWGQGTLVTVSS VL: not shown | – | 0.827 nM | – | –
Antibody #4 (Clone ID 14D14A) (antibody, V domains shown, That clone differs in Kabat CDR-H1 (SYYWC against SYYWS)) VH: QVQLQESGPGLVKPSETLSLTCTVSGGSISSYYWCWIRQSAGKGLEWIGRMYTSGSTNYNPSLKSRVTMSVDTSKNQFSLKLTSVTAADTAVYYCARERGYYYGGGGWIDPWGQGTLVTVSS VL: not shown | – | – | 0.172 nM | 0.827 nM
Antibody #2 (Clone ID 13I04A) (antibody, V domains shown, Raised in AlivaMab mice immunised with human BCMA and purified on protein A. Detected with anti-mouse IgG; also called 13104A) VH: EVQLVESGGGLVQPGGSLRLSCAASGFTSSNYWMSWVRQAPGKGLEWVANIKHDGSEKYFVDSVKGRFTISRDNANNSLYLQMNSLRDEDTAVYYCARMRPWYYDLWGRGTLVTVSS VL: not shown | – | – | 0.037 nM | 0.189 nM
Antibody #1 (Clone ID 01P08A) (antibody, V domains shown, Raised in AlivaMab mice immunised with human BCMA and purified on protein A. Detected with anti-mouse IgG) VH: QVQLQESGPGLVKPSETLSLTCIVSGGSISSYYWNWIRQPAGKGLEWIGRIYKSGNNIYNPSLQSRVTMSLDTSKNQFSLKLSSVTAADTAVYYCADGGNYFDWFDPWGQGTLVIVSS VL: QPVLTQPPSASASLGASVTLTCTLSSGYSNYKVDWYQQRPGKGPRFVMRVGTGGIVGSKGDGIPDRFSVLGSGLIRYLTIKNIQEEDESDYHCGADHGSGNNFVYVFGTGTKVTVL | – | – | 1.03 nM | 3.79 nM
Antibody #3 (Clone ID 13L15A) (antibody, V domains shown, Raised in AlivaMab mice immunised with human BCMA and purified on protein A. Detected with anti-mouse IgG) VH: QAQLVQSGAEVKRPGASVKVSCKASGYTFISYLLHWVRQAPGQGLEWMVIINPSVGSTSYAQKFQGRVTMTRDTSTSTLYMELSSLRSEDTAVYYCARSSRNYWDGAFDIWGQGTMVTVSS VL: QPVLTQPPSASASLGASVTLTCTLSSGYSNYRVDWYQQRPGKGPRFVMRVGTGGIVGSKGDGIPDRFSVLGSGLNRYLTIKNIQEEDESDYHCGADHGSGSNFVWVFGGGTKLTVL | – | – | 0.051 nM | 0.235 nM

The next lines start with the values.

binding result [1] | EC50 [2] | EC50 [3] | EC50 [4] | Binder
binds | – | – | – | 16M16A scFv (scFv, VL-(G4S)3-VH) scFv: QPVLTQPPSASASLGASVTLTCTLSSGYSNYKVDWYQQRPGKGPRFVMRVGTGGIVGSKGDGIPDRFSVLGSGLNRYLTIKNIQEEDESDYHCGADHGSGSNFVYVFGTGTKVTVLGGGGSGGGGSGGGGSQVQLVQSGTEVKKPGASVKVSCKASGSTFTSFFIHWVRQAPGQGLEWMGLINPSGGGTGYALKFQGRVTMTRDTSTSTVYMELSSLRSEDTAVYFCSRGNYEAFDLWGHGTMVTVSS
binds | – | – | – | 13I04A scFv (scFv, VL-(G4S)3-VH) scFv: DIVMTQSPDSLAVSLGERATINCKSSQSVLYSSYNKNYLAWYQQKPGQPPKILIYWASTRESGVPDRFTGSGSGTDFTLTISSLQAEDVAVYYCQQYYSTMYSFGQGTKLEIKGGGGSGGGGSGGGGSEVQLVESGGGLVQPGGSLRLSCAASGFTSSNYWMSWVRQAPGKGLEWVANIKHDGSEKYFVDSVKGRFTISRDNANNSLYLQMNSLRDEDTAVYYCARMRPWYYDLWGRGTLVTVSS
binds | – | – | – | 13L15A scFv (scFv, VL-(G4S)3-VH) scFv: QPVLTQPPSASASLGASVTLTCTLSSGYSNYRVDWYQQRPGKGPRFVMRVGTGGIVGSKGDGIPDRFSVLGSGLNRYLTIKNIQEEDESDYHCGADHGSGSNFVWVFGGGTKLTVLGGGGSGGGGSGGGGSQAQLVQSGAEVKRPGASVKVSCKASGYTFISYLLHWVRQAPGQGLEWMVIINPSVGSTSYAQKFQGRVTMTRDTSTSTLYMELSSLRSEDTAVYYCARSSRNYWDGAFDIWGQGTMVTVSS
binds | – | – | – | 01P08A scFv (scFv, VL-(G4S)3-VH) scFv: QPVLTQPPSASASLGASVTLTCTLSSGYSNYKVDWYQQRPGKGPRFVMRVGTGGIVGSKGDGIPDRFSVLGSGLIRYLTIKNIQEEDESDYHCGADHGSGNNFVYVFGTGTKVTVLGGGGSGGGGSGGGGSQVQLQESGPGLVKPSETLSLTCIVSGGSISSYYWNWIRQPAGKGLEWIGRIYKSGNNIYNPSLQSRVTMSLDTSKNQFSLKLSSVTAADTAVYYCADGGNYFDWFDPWGQGTLVIVSS
– | – | 0.04 nM | 0.188 nM | Antibody #5 (Clone ID 16M16A) (antibody, V domains shown, Raised in AlivaMab mice immunised with human BCMA and purified on protein A. Detected with anti-mouse IgG) VH: QVQLVQSGTEVKKPGASVKVSCKASGSTFTSFFIHWVRQAPGQGLEWMGLINPSGGGTGYALKFQGRVTMTRDTSTSTVYMELSSLRSEDTAVYFCSRGNYEAFDLWGHGTMVTVSS VL: QPVLTQPPSASASLGASVTLTCTLSSGYSNYKVDWYQQRPGKGPRFVMRVGTGGIVGSKGDGIPDRFSVLGSGLNRYLTIKNIQEEDESDYHCGADHGSGSNFVYVFGTGTKVTVL
